“And” between values parts separate entries of the source, which are not always exact repeats. Equal entries are not always repeated.

A word on the stoichiometry N: it is a count of units in the complex or per binding partner.

This test addresses uPAR-tagged soluble human GPIHBP1-S107C (human) (UniProt Q8IV16). As to the kind of experiment: density gradient ultracentrifugation.

For the substance “uPAR-tagged soluble human GPIHBP1-S107C (from UniProt Q8IV16 21-151) (domain or fragment)”, the stoichiometry N is 2 and 3.
